Reference: patent US20180305451A1 (COMPUGEN, published 2018)
Like-named read-outs stand apart in the source and are kept apart here. Blank lines part the entries; values can stand above or below the binder they belong to.

Experiments:
mouse HIDE1 Flag [1] = biological target: T1, mouse HIDE1 Flag (mouse, UniProt Q75VT8 22-222); test: Western blot of whole cell extracts, goat anti-mouse HRP
T1 construct: Over-expressed on HEK293 and EL4 cells (pMSCV); whole cell extracts in WB; also called mHIDE1 flag; not shown: Flag tag
T1 sequence: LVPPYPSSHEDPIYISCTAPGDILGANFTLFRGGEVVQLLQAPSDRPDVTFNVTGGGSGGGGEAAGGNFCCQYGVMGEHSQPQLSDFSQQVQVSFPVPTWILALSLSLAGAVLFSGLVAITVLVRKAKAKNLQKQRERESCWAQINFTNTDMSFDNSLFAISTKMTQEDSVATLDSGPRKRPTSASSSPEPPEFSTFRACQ

human HIDE1 [2] = biological target: T2, human HIDE1 (human, UniProt A8MVS5 20-230); test: FACS, THP1 cells
T2 construct: Endogenous on U937, HL-60, THP-1 cells, blood monocytes, AML blasts and dendritic cells; also called C19orf38; hHIDE1
T2 sequence: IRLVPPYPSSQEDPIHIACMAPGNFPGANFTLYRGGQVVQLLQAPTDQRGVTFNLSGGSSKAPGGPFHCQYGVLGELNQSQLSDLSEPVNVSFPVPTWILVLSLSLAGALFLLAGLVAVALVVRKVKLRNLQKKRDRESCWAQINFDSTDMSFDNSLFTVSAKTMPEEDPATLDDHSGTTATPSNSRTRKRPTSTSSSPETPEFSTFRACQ

human HIDE1 [3] = biological target: T2, human HIDE1; test: FACS, HL-60 cells
human HIDE1 [4] = biological target: T2, human HIDE1; test: FACS, THP1 cells transfected with HIDE1 siRNA, AF647 conjugate
Experimental: Confirmation of HIDE1 endogenous expression was also tested in THP1 cells transfected with HIDE1 siRNA as described in M&M section. Analysis of human HIDE1 membrane expression in the siRNA transfected cells was performed by FACS. As shown in FIG. 31 membrane expressions of human HIDE1 protein is reduced in cells transfected with HIDE1 siRNA (green) as compared to cells transfected with scrambled siRNA (orange).

human HIDE1 [5] = biological target: T2, human HIDE1; test: FACS, U937 cells
mouse HIDE1 Flag [6] = biological target: T1, mouse HIDE1 Flag; test: Western blot of whole cell extracts, goat anti-mouse HRP; remark: listed apart in the source
human HIDE1 [7] = biological target: T2, human HIDE1; test: FACS, U937 cells transfected with HIDE1 siRNA
human HIDE1 [8] = biological target: T2, human HIDE1; test: FACS, HL-60 cells transfected with HIDE1 siRNA
human HIDE1 [9] = biological target: T2, human HIDE1; test: FACS, HL-60 cells transfected with scrambled siRNA
human HIDE1 [10] = biological target: T2, human HIDE1; test: FACS, CD14+ cells of human PBMCs, Alexa 647 conjugate
Experimental: The following antibodies were used. […] Brilliant violet 510 labeled anti-CD3 (Biolegend, cat. 344828), PE-labeled anti-CD14 (Biolegend, cat. 301806) and PercP-labeled anti-CD19 (Biolegend, cat. 302228).
PBMCs cells were thawed and stained with viability dye (BD Horizon; Cat#562247, BD biosciences), washed and pre-blocked with Fc blocking solution (cat#422302, Biolegend; 1:20) and/or human Ig Fc (Jackson; 200 μg/ml; cat#009-000-008) to avoid nonspecific binding via Fc receptors. Cells were then stained with anti-hHIDE1 mAbs or mIgG1 isotype control in the presence or absence of lymphocytes or monocytes surface marker. All samples were run on a MACSQuant analyzer (Miltenyi) and data was analyzed using Tree Star FlowJo software. Cells were first gated for lymphocytes or monocyte (FSC-A vs. SSC-A), and further gated for live cells before analyzed for HIDE1 expression by flow cytometry.

human HIDE1 [11] = biological target: T2, human HIDE1; test: FACS, U937 cells transfected with scrambled siRNA
[12] = biological target: T3, HIDE1_HH-1 (Human ECD + human IgG1 Fc mutated C220S at hinge), without SP (human); test: SPR (ProteOn XPR 36): HIDE1-HH-1 captured on goat anti-human Fc GLC chip, Fab periplasmic extract injected 2 min, undiluted and 3-fold dilutions, 10 min dissociation
T3 construct: Batch #280 in the Serotec and phage display work; also called HIDE1 hECD-hIg; HIDE1 (H:H) recombinant Fc fusion protein
Experimental: A high density goat anti-human Fc antibody (Invitrogen) was immobilized by standard amine coupling over all lanes of a GLC chip using a ProteOn XPR 36 biosensor (Biorad). This surface was used to capture the recombinant HIDE1-H:H fusion protein (GenScript Lot 393383-21, batch #280) or a control Fc fusion protein (CD155, Sino Biologicals) in the vertical flow-cell direction at a concentration of ˜0.5 μg/mL for 90 seconds.
Each anti-HIDE1 Fab PPE sample was then injected at three concentrations (undiluted fab supernatant and two three-fold serial dilutions) in the horizontal direction over the captured fusion proteins. The dilutions were made using degassed PBS with 0.05% Tween 20 and 0.01% BSA. PPEs were injected for two minutes followed by 10 minutes of dissociation at a flow rate of 50 μL/min. The starting concentration range for each Fab is recorded in Table 39. The anti-human fc capture surfaces were regenerated with two 30-second pulses of 146 mM phosphoric acid after each cycle.

T3 sequence (chain, as listed by the source C220S C220S limits assumed): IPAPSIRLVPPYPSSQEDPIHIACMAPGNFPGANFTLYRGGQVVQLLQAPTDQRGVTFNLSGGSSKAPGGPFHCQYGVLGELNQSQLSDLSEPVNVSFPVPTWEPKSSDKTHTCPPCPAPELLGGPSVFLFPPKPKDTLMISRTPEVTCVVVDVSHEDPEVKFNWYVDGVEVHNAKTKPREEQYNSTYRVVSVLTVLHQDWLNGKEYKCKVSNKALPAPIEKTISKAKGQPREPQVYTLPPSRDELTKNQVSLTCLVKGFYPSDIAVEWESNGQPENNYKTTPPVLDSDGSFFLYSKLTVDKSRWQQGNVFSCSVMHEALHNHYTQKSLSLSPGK

binding result (mouse HIDE1 Flag [1]): no binding (tested: 2 µg/ml)
B1: Mouse anti human HIDE1 mAb (Biotem #39A7-3A10-3G8) (antibody, mouse IgG1, kappa, V domains shown)
VH: QVQLQQSGAELVRPGASVKLSCKALGYTFTDYEMHWVKQTPVHGLEWIGDIYPGSGGTAYNQKFKGKATLTADKSSSTAYMELSSLTSEDSAVYYCTRKGRSFAYWGQGTLVTVSA
VL: NIVMTQSPKSMSMSVGERVTLSCKASENVDTYVSWYQQKPEQSPKLLIYGASNRYTGVPDRFTGSGSATDFTLIISSVQAEDLADYHCGQSYRYPLTFGAGTKLELKR
notes: Mouse IgG1; also called 39A7-39A10-3G8

FACS (fold change from isotype) (human HIDE1 [2]): 3 fold
FACS (fold change from isotype) (human HIDE1 [3]): 4 fold
fold change (anti HIDE1 vs. isotype control) (human HIDE1 [4]): 1.9 fold
FACS (fold change from isotype) (human HIDE1 [5]): 14 fold
binding result (mouse HIDE1 Flag [6]): no binding (tested: 2 µg/ml)
fold change (anti HIDE1 vs. isotype control) (human HIDE1 [7]): 7 fold
fold change (anti HIDE1 vs. isotype control) (human HIDE1 [8]): 3 fold
fold change (anti HIDE1 vs. isotype control) (human HIDE1 [9]): 5.2 fold
staining, folds over isotype control (human HIDE1 [10]): ~3 fold
fold change (anti HIDE1 vs. isotype control) (human HIDE1 [11]): 17.7 fold
B2: Mouse anti human HIDE1 mAb (Biotem #33B4-2F7) (antibody, mouse IgG1, kappa, V domains shown)
VH: QIQLVQSGPELKKPGETVKISCKASGYTFTNYGMNWVKQAPGKGLKWMGWINTYTGEPTYADDFKGRFAFSLETPASTAYLQINNLKNEDMATYFCVREHFYALDYWGQGTSVTVSS
VL: KIVLTQSPASLAVSLRQRATISCRASESVDSYGNSFMHWYQQKPGQPPKLLIYRASNLESGVPARFSGSGSRTDFTLTIDPVEADDAATYYCQQSNEDPRTFGGGTKLEIKR
notes: Mouse IgG1; also called Ab-364

binding result [12]: binds
B3: B09 S404-01.C08 (Fab, V domains shown)
VH: QVQLVESGGGVVQPGRSLRLSCAASGFTFSSYAMHWVRQAPGKGLEWVAVISYDGSNKYYADSVKGRFTISRDNSKNTLYLQMNSLRAEDTAVYYCARSSGSSWSNIAYWGQGTLVTVSS
VL: QSVLTQPPSVSGAPGQRVTISCIGSSSNIGAGYDVHWYRQLPGTAPKLLIYDNTNRPSGVPDRFSASKSGISASLAITGLQAEDEADYYCQSYDSNLSGVFGGGTQLTVL
notes: Fab form of CPA.12.012 (IgG4 form is m55); complex kinetics; copies: 1 + 1
